One molecule from US11840574B2, “Anti-DR5 antibody and use thereof” (DONG-A ST CO., LTD., priority 2017, dated 2023) can be followed below.

Experiment [1] concerns the target Human DR5 (Homo sapiens, UniProt O14763). The experiment is described as follows: Binding affinity of antibody to human DR5 (BIAcore, CM5 chip). A digest of the protocol: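 Surface plasmon resonance was run with human DR5 coupled to a CM5 chip. IgG was injected as analyte at 2-fold dilutions from 5 nM to 0.156 nM. Association and dissociation rates were fitted to a 1:1 Langmuir model, and KD was taken as the ratio of the two rate constants.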

The test system of experiment [2] is caspase-3/7. The experiment is described as follows: Intracellular caspase activity (Apo-ONE Caspase-3/7), Colo205. It is filed as cell-based, human. The note with it: Colo205, Ab alone or Ab linked, 4 hours. How it is done:
(§1) In order to investigate the cell death mechanism thereof, the constructed antibodies were assayed for caspase activity. The activity of caspase-3/7 was measured using Apo-ONE® Homogeneous Caspase-3/7 Assay kit (Promega, U.S.A.). In this assay, the human colorectal cancer cell line Colo205 (ATCC, U.S.A.), the human pancreatic cancer cell line Miapaca-2 (ATCC, U.S.A.), and the lung cancer cell line H2122 (ATCC, U.S.A.) were employed. A suspension of each tumor cell line having a concentration of 1×10^5 cells/ml was plated at a volume of 50 μl per well into 96-well cell culture plates and cultured for 16-24 hours in a constant temperature and humidity chamber. The cells were treated with predetermined concentrations (0.01-10000 ng/ml) of the antibody alone (Ab alone) or in combination with a crosslinking antibody (anti-human Fc) (Serotec, U.S.A.) (Ab linked) and then cultured for 4 hours. […] When the reaction reached a predetermined level, fluorescence was read at 520 nm using a spectrophotometer (Molecular Device). Caspase activity was calculated as a fold increase of relative fluorescence units (RFU) of a test substance-treated group (treated RFU) to over the relative fluorescence units of a culture medium-treated group (untreated RFU) (Caspase activity=treated RFU/Untreated RFU). […]

Experiment [3] relates to caspase-3/7. The experiment is described as follows: Intracellular caspase activity (Apo-ONE Caspase-3/7), H2122. It is filed as cell-based, human. The note with it: H2122, Ab alone or Ab linked, 4 hours. The method, then:
as §1

Experiment [4] deals with caspase-3/7. The experiment is described as follows: Intracellular caspase activity (Apo-ONE Caspase-3/7), Miapaca-2. It is filed as cell-based, human. The following applies: Miapaca-2, Ab alone or Ab linked, 4 hours. The method, then:
as §1

The subject of experiment [5] is human pancreatic cancer cell line Miapaca-2. The experiment is described as follows: Tumor cell death assay, co-treatment with gemcitabine, Miapaca-2. It is filed as cell-based. The following applies: Miapaca-2, gemcitabine 3 nM-300 nM, 48 to 72 hours. The method, then: (§2) Effects obtained from co-treatment with the above constructed antibody and gemcitabine were evaluated using in vitro tumor cell death assay.
(§3) The human pancreatic cancer cell lines Miapaca-2 (ATCC, U.S.A.) and Panc-1 (ATCC, U.S.A.) were each suspended at a density of 1×10^5 cells/ml. The suspensions were added in an amount of 50 μl to each well of 96-well cell culture plates and incubated for 16-24 hours in a constant temperature and humidity chamber. The cancer cell lines were treated with the anti-DR5 antibodies of the present disclosure including D0 in combination with certain concentrations (3 nM-300 nM) of gemcitabine and cultured for 48 to 72 hours. The cells were further incubated for 1 to 3 hours after addition of 10 μl of a resazurin solution (Invitrogen, U.S.A.) per well. When the reaction proceeded to a predetermined level, fluorescence was read at 590 nm using a spectrophotometer (Molecular Device). Cell viability was calculated as the percentage of relative fluorescence units (RFU) of a test substance-treated group (treated RFU) to relative fluorescence units of a culture medium-treated group (untreated RFU) (Cell viability (%)=treated RFU/Untreated RFU×100). The results are depicted in FIGS. 6a to 6r. Representative results are depicted in FIGS. 11a (Miapaca-2) and 11b (Panc-1). For comparison, the control antibody AP was treated in the same manner

For experiment [6], the system named is human pancreatic cancer cell line Panc-1. The experiment in a line: Tumor cell death assay, co-treatment with gemcitabine, Panc-1. The experiment is classed as cell-based. The following applies: Panc-1, gemcitabine 3 nM-300 nM, 48 to 72 hours. The method, then: as §2, §3

As a reminder, the Kd is a measure of binding affinity in units of concentration. Low readings indicate a tighter complex, high ones a looser complex.

B1: DA29: humanized or deimmunized variant of parental clone D0; CDRs SEQ ID NO 1, 2, 7 / 4, 10, 13 (antibody, V domains shown)
VH: AVTLDESGGGLQTPGGGLSLVCKGSGFTFSSFNMLWVRQAPGKGLEWVAGIGKSDRYTGYGSAVKGRATISRDDGQSTARLQLNNLRAEDTGTYYCVKDAGSGCGSGGWTGACIDTWGHGTEVIVSS
VL: LTQPSSVSANLGGTVEITCSGGDSYAGSYYYGWYQQKAPGSAPVTVIYNNNNRPSNIPSRFSGSTSGSTATLTITGVQAEDEATYFCGSRDSSYVGIFGAGTTLTVL
In the case of B1, the “Ka(1/Ms)” value in experiment [1] (association rate, Human DR5, 1:1 Langmuir binding model) is on record as 1.21 × 10^06 1/Ms. The molecule also came in with a dissociation constant (Kd) in experiment [1] (equilibrium dissociation constant, Human DR5) of 0.0698 nM. Also, the “activity of caspase-3/7” value in experiment [2], in experiment [3] and in experiment [4] was “increase in the activity of casapse-3/7” throughout. Moreover, the “apoptotic activity upon co-treatment with gemcitabine relative to each individual substance” value in experiment [5] and in experiment [6] was “increased apoptotic activity” throughout.
